The results in this text go back to paper PMC9384509.

Test [1] concerns the target human Angiotensin Converting Enzyme 2 (ACE2, amino acids 19-615) fused to human IgG Fc (human) (UniProt Q9BYF1). Nature of the test: SPR. On the technique in general: In SPR one partner is held on a chip, and binding of the other changes the refractive index at the surface.
For test [2] the target is unchanged.

In turn, “SARS-CoV-2 receptor binding domain Y489R mutant (RBD-Y489R) (domain or fragment; other documents disagree on this pair)” gave a percent reduction of binding against RBD-WT in test [1] of 94%.

In test [2], “SARS-CoV-2 receptor binding domain (RBD, original Wuhan variant), amino acids 330-532 (domain or fragment)” came in with a reduction of the surface membrane ACE2 level on pericytes (immunohistochemistry, overlap with PDGFRβ) after 3 h of RBD (0.7 mg/l) on hamster brain slices; ACE2 is the endogenous hamster protein of 32%.
